Data taken from patent US20140242061.

Molecular target: T1, human macrophage mannose receptor (MMR), P22897
T1 chain: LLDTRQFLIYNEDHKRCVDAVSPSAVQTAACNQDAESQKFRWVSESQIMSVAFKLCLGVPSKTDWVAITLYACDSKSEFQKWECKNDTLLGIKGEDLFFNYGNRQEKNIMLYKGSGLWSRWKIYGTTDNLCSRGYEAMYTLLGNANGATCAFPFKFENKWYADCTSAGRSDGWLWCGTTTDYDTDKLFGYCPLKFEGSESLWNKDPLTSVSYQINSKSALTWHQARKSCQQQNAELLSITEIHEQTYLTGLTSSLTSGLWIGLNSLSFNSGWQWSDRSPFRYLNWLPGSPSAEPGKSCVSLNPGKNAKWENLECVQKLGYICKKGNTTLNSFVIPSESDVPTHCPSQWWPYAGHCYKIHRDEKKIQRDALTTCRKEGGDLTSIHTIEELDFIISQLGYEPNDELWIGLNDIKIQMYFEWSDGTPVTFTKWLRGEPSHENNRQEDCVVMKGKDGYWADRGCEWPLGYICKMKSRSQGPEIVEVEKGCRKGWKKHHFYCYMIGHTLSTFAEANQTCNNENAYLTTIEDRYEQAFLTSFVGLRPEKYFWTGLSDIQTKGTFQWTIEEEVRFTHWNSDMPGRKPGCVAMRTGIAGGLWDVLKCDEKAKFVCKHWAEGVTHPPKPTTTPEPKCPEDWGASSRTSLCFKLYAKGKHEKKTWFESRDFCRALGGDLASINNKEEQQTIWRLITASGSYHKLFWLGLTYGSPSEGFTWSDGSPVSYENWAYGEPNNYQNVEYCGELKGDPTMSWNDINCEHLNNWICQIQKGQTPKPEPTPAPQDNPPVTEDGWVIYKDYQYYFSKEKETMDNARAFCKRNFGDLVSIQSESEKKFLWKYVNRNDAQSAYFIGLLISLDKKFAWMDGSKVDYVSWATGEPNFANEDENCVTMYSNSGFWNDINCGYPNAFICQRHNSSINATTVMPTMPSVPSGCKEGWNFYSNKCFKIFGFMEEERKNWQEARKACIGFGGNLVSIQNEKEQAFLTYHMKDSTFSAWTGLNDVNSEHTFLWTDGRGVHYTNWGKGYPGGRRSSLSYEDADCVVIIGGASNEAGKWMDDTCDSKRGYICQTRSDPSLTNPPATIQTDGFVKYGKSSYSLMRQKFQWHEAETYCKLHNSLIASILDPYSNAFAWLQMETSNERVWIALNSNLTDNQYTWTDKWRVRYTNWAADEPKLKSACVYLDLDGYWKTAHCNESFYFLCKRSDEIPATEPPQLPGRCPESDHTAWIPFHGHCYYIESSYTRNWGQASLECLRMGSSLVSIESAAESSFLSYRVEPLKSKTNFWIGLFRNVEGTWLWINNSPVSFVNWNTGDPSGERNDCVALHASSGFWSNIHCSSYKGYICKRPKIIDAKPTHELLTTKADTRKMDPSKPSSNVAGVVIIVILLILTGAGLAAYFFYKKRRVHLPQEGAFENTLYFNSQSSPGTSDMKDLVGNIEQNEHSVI

B1: velaglucerase alfa (protein)
chain: ARPCIPKSFGYSSVVCVCNATYCDSFDPPTFPALGTFSRYESTRSGRRMELSMGPIQANHTGTGLLLTLQPEQKFQKVKGFGGAMTDAAALNILALSPPAQNLLLKSYFSEEGIGYNIIRVPMASCDFSIRTYTYADTPDDFQLHNFSLPEEDTKLKIPLIHRALQLAQRPVSLLASPWTSPTWLKTNGAVNGKGSLKGQPGDIYHQTWARYFVKFLDAYAEHKLQFWAVTAENEPSAGLLSGYPFQCLGFTPEHQRDFIARDLGPTLANSTHHNVRLLMLDDQRLLLPHWAKVVLTDPEAAKYVHGIAVHWYLDFLAPAKATLGETHRLFPNTMLFASEACVGSKFWEQSVRLGSWDRGMQYSHSIITNLLYHVVGWTDWNLALNPEGGPNWVRNFVDSPIIVDITKDTFYKQPMFYHLGHFSKFIPEGSQRVGLVASQKNDLDAVALMHPDGSAVVVVLNRSSKDVPLTIKDPAVGFLETISPGYSIHTYLWRRQ
internalization rate in U937-derived macrophages (4-MU-glc activity assay), relative to imiglucerase: velaglucerase alfa is internalized up to 2.5-fold more efficiently than imiglucerase
